Binding signal data for 41 molecules are collected here from PMC11417369, “DNA sequence and chromatin differentiate sequence-specific transcription factor binding in the human malaria parasite Plasmodium falciparum”.

The labels stand for the following.
T1: AP2-G D1 (Plasmodium falciparum, UniProt Q8I5I9 2123-2245)
T1 sequence: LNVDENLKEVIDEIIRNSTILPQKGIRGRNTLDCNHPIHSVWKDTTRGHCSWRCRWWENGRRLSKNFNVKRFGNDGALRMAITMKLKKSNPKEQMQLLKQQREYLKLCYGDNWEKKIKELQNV

B1: XGTACX_site1288 (dsDNA)
DNA 1: TAAAGAGTCATGTGGTGTACCTGCTTCACCACATAT
DNA 2: ATATGTGGTGAAGCAGGTACACCACATGACTCTTTA
B2: XGTACX_site3663 (dsDNA)
DNA 1: TTTTTTTCTTAAAGATGTACTTTTTTAAAATAATCT
DNA 2: AGATTATTTTAAAAAAGTACATCTTTAAGAAAAAAA
B3: XGTACX_site2864 (dsDNA)
DNA 1: CCTATATAATTATAATGTACTTGTAAAAAATATAAC
DNA 2: GTTATATTTTTTACAAGTACATTATAATTATATAGG
B4: XGTACX_site1392 (dsDNA)
DNA 1: ATATGTAAAATATGGGGTACGAAGGTAGGTAGGTAA
DNA 2: TTACCTACCTACCTTCGTACCCCATATTTTACATAT
B5: XGTACX_site7594 (dsDNA)
DNA 1: AGACGTAATAATTGTTGTACATAAAAAAATAAGAAA
DNA 2: TTTCTTATTTTTTTATGTACAACAATTATTACGTCT
B6: XGTACX_site7911 (dsDNA)
DNA 1: TAGCATGATTTGCCTTGTACACAACCGTTTTAATAA
DNA 2: TTATTAAAACGGTTGTGTACAAGGCAAATCATGCTA
B7: XGTACX_site894 (dsDNA)
DNA 1: AATAATGTTATAAATTGTACGTGTATTATTCATTAC
DNA 2: GTAATGAATAATACACGTACAATTTATAACATTATT
B8: XGTACX_site1944 (dsDNA)
DNA 1: TTCAAAAATATATAATGTACACAAATATAAAAGAAT
DNA 2: ATTCTTTTATATTTGTGTACATTATATATTTTTGAA
B9: XGTACX_site5322 (dsDNA)
DNA 1: TATATATATATATGTAGTACTTTACAAAATAATTCG
DNA 2: CGAATTATTTTGTAAAGTACTACATATATATATATA
B10: XGTACX_site1573 (dsDNA)
DNA 1: TCCATTGTCACCTTTTGTACTTAAATTTTTTCCTCC
DNA 2: GGAGGAAAAAATTTAAGTACAAAAGGTGACAATGGA
B11: XGTACX_site8481 (dsDNA)
DNA 1: TCAATTTTTTAATGTTGTACTTTGTAAAAAAAAATA
DNA 2: TATTTTTTTTTACAAAGTACAACATTAAAAAATTGA
B12: XGTACX_site4379 (dsDNA)
DNA 1: AATTAAATAAATGTATGTACATAATAAATATGTATT
DNA 2: AATACATATTTATTATGTACATACATTTATTTAATT
B13: XGTACX_site5503 (dsDNA)
DNA 1: TATATATATATAGGTTGTACATTTTGATGTTTACGT
DNA 2: ACGTAAACATCAAAATGTACAACCTATATATATATA
B14: XGTACX_site8448 (dsDNA)
DNA 1: AGGTTTCATTTAGCATGTACATATTATAAAAATTGT
DNA 2: ACAATTTTTATAATATGTACATGCTAAATGAAACCT
B15: XGTACX_site2117 (dsDNA)
DNA 1: TATAATATATGTATATGTACTTATGTTGAGAAACAT
DNA 2: ATGTTTCTCAACATAAGTACATATACATATATTATA
B16: XGTACX_site8830 (dsDNA)
DNA 1: AAATGCTAAAAATAGAGTACAGATAACGAAAAGTGT
DNA 2: ACACTTTTCGTTATCTGTACTCTATTTTTAGCATTT
B17: XGTACX_site8893 (dsDNA)
DNA 1: ATATATATATATATATGTACATATATATTGTTGATC
DNA 2: GATCAACAATATATATGTACATATATATATATATAT
B18: XGTACX_site3785 (dsDNA)
DNA 1: ATATACATATGTGTGTGTACTTATATCACATTTTTG
DNA 2: CAAAAATGTGATATAAGTACACACACATATGTATAT
B19: XGTACX_site7939 (dsDNA)
DNA 1: GGATTTTTCGAATCATGTACATATTTAATTAAAAAA
DNA 2: TTTTTTAATTAAATATGTACATGATTCGAAAAATCC
B20: XGTACX_site4165 (dsDNA)
DNA 1: TTGTTTTTTTTTGGCTGTACGTTCATAAATTTTTTT
DNA 2: AAAAAAATTTATGAACGTACAGCCAAAAAAAAACAA
B21: XGTACX_site583 (dsDNA)
DNA 1: ATAATATATATATAGTGTACATTTGAATATATTTGA
DNA 2: TCAAATATATTCAAATGTACACTATATATATATTAT
B22: XGTACX_site4915 (dsDNA)
DNA 1: AACGAAAACACTACGTGTACCAAACGTCCTACTAAC
DNA 2: GTTAGTAGGACGTTTGGTACACGTAGTGTTTTCGTT
B23: XGTACX_site2113 (dsDNA)
DNA 1: AAGATAAAATAATAAAGTACACATATAAATTGAAAA
DNA 2: TTTTCAATTTATATGTGTACTTTATTATTTTATCTT
B24: XGTACX_site3365 (dsDNA)
DNA 1: TATATGGGATATATGTGTACATATAAAATATGTATC
DNA 2: GATACATATTTTATATGTACACATATATCCCATATA
B25: XGTACX_site5884 (dsDNA)
DNA 1: TCAAGTATTAAAATGGGTACATAAATATGTGTATAT
DNA 2: ATATACACATATTTATGTACCCATTTTAATACTTGA
B26: XGTACX_site6785 (dsDNA)
DNA 1: ATATATGGAAAGAGTAGTACTATTATAGGGGTGTTA
DNA 2: TAACACCCCTATAATAGTACTACTCTTTCCATATAT
B27: XGTACX_site1598 (dsDNA)
DNA 1: CTAATAAAAAAAAAAAGTACATATGACAATATAAAG
DNA 2: CTTTATATTGTCATATGTACTTTTTTTTTTTATTAG
B28: XGTACX_site8514 (dsDNA)
DNA 1: AGTATTATATATATATGTACATAATATACATATATA
DNA 2: TATATATGTATATTATGTACATATATATATAATACT
B29: XGTACX_site977 (dsDNA)
DNA 1: TTCAAATTGTTTATATGTACTTATAAAAATTGTCTG
DNA 2: CAGACAATTTTTATAAGTACATATAAACAATTTGAA
B30: XGTACX_site8539 (dsDNA)
DNA 1: AAATAAAGTAAAATATGTACATAAATTAAAACACAT
DNA 2: ATGTGTTTTAATTTATGTACATATTTTACTTTATTT
B31: XGTACX_site8237 (dsDNA)
DNA 1: TATAAAAATTAATATTGTACGTTTTATGAAAATAAA
DNA 2: TTTATTTTCATAAAACGTACAATATTAATTTTTATA
B32: XGTACX_site4551 (dsDNA)
DNA 1: ATATATATATATATTTGTACTTACATTTTTATTTAT
DNA 2: ATAAATAAAAATGTAAGTACAAATATATATATATAT
B33: XGTACX_site6588 (dsDNA)
DNA 1: AAAAATTGAATGATGTGTACTTAAAAGAATATAGAA
DNA 2: TTCTATATTCTTTTAAGTACACATCATTCAATTTTT
B34: XGTACX_site2966 (dsDNA)
DNA 1: AAACATATAAATCACGGTACACATTATTGAAAGTGT
DNA 2: ACACTTTCAATAATGTGTACCGTGATTTATATGTTT
B35: XGTACX_site5109 (dsDNA)
DNA 1: TTTTTTTTTTTTTTTGGTACACATTTTGGTTAATGG
DNA 2: CCATTAACCAAAATGTGTACCAAAAAAAAAAAAAAA
B36: XGTACX_site8319 (dsDNA)
DNA 1: AAAAAAATATTAATGTGTACATAATAATAACATATA
DNA 2: TATATGTTATTATTATGTACACATTAATATTTTTTT
B37: XGTACX_site1814 (dsDNA)
DNA 1: TTAAGAATATTTTCATGTACTCATTTTTTTTGTTAT
DNA 2: ATAACAAAAAAAATGAGTACATGAAAATATTCTTAA
B38: XGTACX_site3520 (dsDNA)
DNA 1: ATATATATATATATATGTACTTATTTATCGTATTAT
DNA 2: ATAATACGATAAATAAGTACATATATATATATATAT
B39: XGTACX_site1737 (dsDNA)
DNA 1: AGATCTATTATTTTTTGTACTTATATATAAACTTAA
DNA 2: TTAAGTTTATATATAAGTACAAAAAATAATAGATCT
B40: XGTACX_site1387 (dsDNA)
DNA 1: AAAAAAAATTATATATGTACTTATTAATCCTTTTAT
DNA 2: ATAAAAGGATTAATAAGTACATATATAATTTTTTTT
B41: XGTACX_site8080 (dsDNA)
DNA 1: AAGCTTAAAAATGGGGGTACGTCATAGGGATTCAAC
DNA 2: GTTGAATCCCTATGACGTACCCCCATTTTTAAGCTT

The series has as its target T1, AP2-G D1. The experiment in a line: gcPBM; about 25 ug protein; PBS, 1% milk, 0.2 mg/ml BSA, salmon testes DNA, 0.03% Triton X-100. Particulars: tags: N-terminal GST (pGEX-4T-1), kept; label: surface-attached array probe.
Turning to B1, the binding signal was 11.9 ln median PBM intensity, better of two orientations. For B2, the binding signal was 12 ln median PBM intensity, better of two orientations. As for B3, the binding signal is 11.8 ln median PBM intensity, better of two orientations. Next, B4: 11.7 ln median PBM intensity, better of two orientations; B5: 12.1 ln median PBM intensity, better of two orientations. On to B6, for which the binding signal was 11.7 ln median PBM intensity, better of two orientations. Under B7 stands 11.8 ln median PBM intensity, better of two orientations; under B8, 12 ln median PBM intensity, better of two orientations; under B9, 12.1 ln median PBM intensity, better of two orientations.

Turning to B10, the binding signal was 11.9 ln median PBM intensity, better of two orientations. For B11, the binding signal was 11.7 ln median PBM intensity, better of two orientations.

For B12, the binding signal is 11.7 ln median PBM intensity, better of two orientations.

Take B13: the binding signal was 11.5 ln median PBM intensity, better of two orientations. Under B14 stands 11.6 ln median PBM intensity, better of two orientations; under B15, 11.7 ln median PBM intensity, better of two orientations; under B16, 12.1 ln median PBM intensity, better of two orientations. Next, B17: 11.8 ln median PBM intensity, better of two orientations. Next, B18: 12 ln median PBM intensity, better of two orientations. In the case of B19, the binding signal was 11.8 ln median PBM intensity, better of two orientations. In the case of B20, the binding signal was 11.9 ln median PBM intensity, better of two orientations.

Consider B21, for which the binding signal is 11.6 ln median PBM intensity, better of two orientations.

For B22, the binding signal was 11.5 ln median PBM intensity, better of two orientations. Next, B23: 11.8 ln median PBM intensity, better of two orientations; B24: 11.8 ln median PBM intensity, better of two orientations. For the molecule B25, the binding signal was 12.1 ln median PBM intensity, better of two orientations. For the molecule B26, the binding signal was 11.7 ln median PBM intensity, better of two orientations. Under B27 stands 12.1 ln median PBM intensity, better of two orientations; under B28, 11.6 ln median PBM intensity, better of two orientations; under B29, 11.8 ln median PBM intensity, better of two orientations. Next, B30: 11.6 ln median PBM intensity, better of two orientations; B31: 11.9 ln median PBM intensity, better of two orientations; B32: 11.6 ln median PBM intensity, better of two orientations.

B33: the binding signal was 11.8 ln median PBM intensity, better of two orientations. As to B34, the binding signal is 11.6 ln median PBM intensity, better of two orientations. Under B35 stands 12 ln median PBM intensity, better of two orientations. As for B36, the binding signal is 11.9 ln median PBM intensity, better of two orientations. On to B37, for which the binding signal was 12 ln median PBM intensity, better of two orientations. With B38, the binding signal was 11.9 ln median PBM intensity, better of two orientations.

With B39, the binding signal was 11.5 ln median PBM intensity, better of two orientations. Turning to B40, the binding signal is 12 ln median PBM intensity, better of two orientations. In the case of B41, the binding signal was 11.7 ln median PBM intensity, better of two orientations.
